The text below walks through data of the supplement of paper PMC10126150.

± gives the standard deviation of the averaged measurements.
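Also: ATP exposure 15 min at 22 °C before imaging.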

The subject of the series is ATP. The experiment in a line: switch fluorescence ratio, 500 uM ATP over buffer (Cy3 cluster intensity, sum of 5 cycles each) (fold (ratio)); higher = stronger signal-on switching upon ATP binding; sequences stand for … in TCGTCGGCAGCGTCAGATGTGTATAAGAGACAGTTTTTTTTTTTTTTTTTTTTTTTTT…TC. The conditions noted are these: aptamer strand: ATP DNA aptamer (quencher-CACCTGGGGGAGTATTGCGGAGGAAGG + anchor), 100 nM annealed; ATP concentration: 500 uM. In outline:
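The fluorescence ratio divides summed target-cycle Cy3 intensity by summed buffer-cycle Cy3 intensity for each cluster and is averaged per switch-domain sequence. Cy3-labelled switching-strand clusters on a modified Illumina MiSeq flow-cell were annealed to 100 nM quencher-labelled ATP aptamer, then imaged in selection buffer and again after 15 min with 500 uM ATP at 22 °C. Five such cycles were run, with NaOH stripping and re-annealing between them, and clusters outside 100-1000 RFU were excluded.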
As to GCAGAGGGCA, the switch fluorescence ratio worked out at 1.01 ± 0.049.

Take TCTGGCGCCG: the switch fluorescence ratio was determined as 1.03 ± 0.017.

In the case of TTCGCTCTTT, the switch fluorescence ratio is 1.06 ± 0.025.

Take TTATCCCGAA: the switch fluorescence ratio was determined as 0.991 ± 0.0085.

Take TAGGTGTTTG: the switch fluorescence ratio was determined as 0.999 ± 0.018.

In the case of CATTCTGCGC, the switch fluorescence ratio was 1.16 ± 0.05.

As to ACACGGTGAT, the switch fluorescence ratio came out at 1.056 ± 0.0056.

In the case of GGAGAAAATG, the switch fluorescence ratio turned out to be 1.0023 ± 0.00074.

As to CAAAGGTTAG, the switch fluorescence ratio is 1.0209 ± 0.001.

As to TTATATGATT, the switch fluorescence ratio stood at 0.997 ± 0.036.

For AATATATCCG, the switch fluorescence ratio was 1.03 ± 0.02.

Consider CGTTACTGGT, for which the switch fluorescence ratio worked out at 0.973 ± 0.016.

Take TGGGGATGTT: the switch fluorescence ratio stood at 1.01 ± 0.049.

As to CTAGTGCTTG, the switch fluorescence ratio is 1.008 ± 0.0032.

With ATGATGCTGG, the switch fluorescence ratio was determined as 1.02 ± 0.077.

As to TCTTTGCAGC, the switch fluorescence ratio amounted to 1.025 ± 0.0041.

With TCTGGTGTGG, the switch fluorescence ratio was determined as 0.994 ± 0.053.

Consider ATATTATGGG, for which the switch fluorescence ratio is 0.9979 ± 0.0095.

AATGATCGAC: the switch fluorescence ratio was 0.975 ± 0.012.

For the sequence TCCAAAGATG, the switch fluorescence ratio amounted to 0.9892 ± 0.005.

Regarding CAGGGTTGCC, the switch fluorescence ratio was 0.996 ± 0.018.

Turning to TGAAATCCGA, the switch fluorescence ratio was 1 ± 0.027.

Turning to TGATTTGTTG, the switch fluorescence ratio was 0.971 ± 0.011.

As for TTGTTTCATG, the switch fluorescence ratio was 1.01 ± 0.025.

With ATTAGTGGGG, the switch fluorescence ratio was found to be 0.978 ± 0.013.

Consider ACTTCATGGG, for which the switch fluorescence ratio turned out to be 1.01 ± 0.029.

As for TGTGGGGTAG, the switch fluorescence ratio came out at 1.01 ± 0.029.

Turning to TCTTGGTCGT, the switch fluorescence ratio was found to be 0.9677 ± 0.0051.

On to TTACTAGTTT, for which the switch fluorescence ratio was determined as 0.981 ± 0.02.

Turning to ACGGAGAGGC, the switch fluorescence ratio is 1.14 ± 0.22.

For ATAGTTTGAT, the switch fluorescence ratio was 1.01 ± 0.022.

Consider TGAGAGAGTG, for which the switch fluorescence ratio turned out to be 1.02 ± 0.059.

In the case of AGCGATTATA, the switch fluorescence ratio stood at 0.991 ± 0.0037.

For the sequence GGTACGGTAA, the switch fluorescence ratio worked out at 1.11 ± 0.038.

On to GGGCAAATGA, for which the switch fluorescence ratio was 0.9764 ± 0.0041.

For CGCACAGTCA, the switch fluorescence ratio was found to be 1.06 ± 0.023.

With TGTTTATTAG, the switch fluorescence ratio was 0.986 ± 0.01.

As for GATATTGCTA, the switch fluorescence ratio was 0.975 ± 0.03.

Regarding GCCGGATCTT, the switch fluorescence ratio was 1.01 ± 0.02.

On to TTGAATATTT, for which the switch fluorescence ratio amounted to 1 ± 0.014.

AATGGCAGGG: the switch fluorescence ratio turned out to be 0.988 ± 0.039.

With GCACTCTGAG, the switch fluorescence ratio turned out to be 0.993 ± 0.029.

With GATTAAATTA, the switch fluorescence ratio is 1.01 ± 0.021.

Regarding GTTATATTGA, the switch fluorescence ratio amounted to 0.999 ± 0.026.

Turning to CATTAGCAGG, the switch fluorescence ratio turned out to be 1.08 ± 0.032.

Regarding TGCTGCTGAG, the switch fluorescence ratio is 0.971 ± 0.016.

With ATTTATTGGC, the switch fluorescence ratio is 1.02 ± 0.042.

As to ATTTTAGGGA, the switch fluorescence ratio turned out to be 0.98918 ± 0.00041.

On to GGTTAAGTAG, for which the switch fluorescence ratio was 1.004 ± 0.0075.

Take ACGTTGGATT: the switch fluorescence ratio came out at 1.01 ± 0.014.

Take AGCGGCCTG: the switch fluorescence ratio amounted to 1.01 ± 0.056.

As for TGGGTCATCT, the switch fluorescence ratio was determined as 1.02 ± 0.065.

Regarding TTTCAGAGAA, the switch fluorescence ratio was 1.04 ± 0.049.

TAAAGGATAT: the switch fluorescence ratio was found to be 1.01 ± 0.014.

On to GTTGGCAGGC, for which the switch fluorescence ratio was found to be 1.03 ± 0.028.

TTGGGGAATA: the switch fluorescence ratio was 1.05 ± 0.035.

On to GGGGCGGGCA, for which the switch fluorescence ratio was found to be 1.03 ± 0.043.

Turning to GAAGGTTCGT, the switch fluorescence ratio is 1 ± 0.034.

As to TATTTGGCTA, the switch fluorescence ratio worked out at 0.983 ± 0.045.

Turning to ATAGTGAGGT, the switch fluorescence ratio worked out at 0.986 ± 0.038.

For the sequence GGACGCTGTG, the switch fluorescence ratio amounted to 0.986 ± 0.043.

With TGAGTCCCGG, the switch fluorescence ratio worked out at 1 ± 0.016.

For the sequence TCGGAGACTC, the switch fluorescence ratio is 1.05 ± 0.022.

As for TACTGAAGGG, the switch fluorescence ratio is 1.02 ± 0.031.

As to GTGATAGGGA, the switch fluorescence ratio was 1 ± 0.013.

As to TGGATTGGGG, the switch fluorescence ratio was found to be 0.978 ± 0.059.

With GGTTGGGTTG, the switch fluorescence ratio came to 0.987 ± 0.019.

Turning to ACTTCCGCGA, the switch fluorescence ratio came to 1.75 ± 0.11.

On to GGAATGCGCA, for which the switch fluorescence ratio came out at 1.028 ± 0.0068.

Regarding TGGGTTATCT, the switch fluorescence ratio was 0.972 ± 0.028.

On to CAGGGGAATG, for which the switch fluorescence ratio stood at 0.994 ± 0.021.

As for CAAACATTTT, the switch fluorescence ratio turned out to be 0.9795 ± 0.0044.

In the case of TAACTATAAG, the switch fluorescence ratio was 1 ± 0.018.

On to CAAAGCTTGA, for which the switch fluorescence ratio was 1.01 ± 0.036.

For the sequence ATCATCCGTT, the switch fluorescence ratio amounted to 1.04 ± 0.025.

On to GATTACCAAG, for which the switch fluorescence ratio was 1.03 ± 0.025.

As to AACTGGGGA, the switch fluorescence ratio came to 0.967 ± 0.015.

Take TAAATGTGCG: the switch fluorescence ratio came to 0.996 ± 0.031.

Turning to AGCGATGCGG, the switch fluorescence ratio amounted to 0.9867 ± 0.0023.
